Legend:
[1] = system: GLUT1, LAT1, KIDINS220, ATP7A, CTR1 surface levels in HeLa cells; assay: Surface biotinylation and streptavidin purification: cell surface protein levels; format: cell-based, human; conditions: Hela cells transduced with GFP-RAB10 T23N; PAR+GFP = 100; mean of n = 3
Experimental: For every kind of protein extraction, buffers were pre-chilled, and cells and samples placed on ice. For basic western blot (WB), cells were lysed in ~ pH 7.2 phosphate buffered saline (PBS) with 1% (v/v) Triton X-100 and protease inhibitors (Thermo Fisher, A32955). The protein concentration was determined with a bicinchoninic acid (BCA) assay kit (Thermo Fisher, 23225) and equal amounts were denaturised (LDS Sample buffer (Thermo Fisher, NP0008), 3% β-mercaptoethanol (Sigma-Aldrich, M6250), 10 min at 95 °C) and resolved by SDS-PAGE on NuPAGE 4–12% precast gels (Invitrogen, NP0336BOX). Protein samples were then transferred onto methanol-activated polyvinylidene fluoride (PVDF) membrane (Immobilon-FL membrane, pore size 0.45μm; Millipore, IPFL00010). The membrane was blocked, then sequentially labelled with primary and secondary antibodies. Fluorescence detected by scanning with a LI-COR Odyssey scanner and Image Studio analysis software (LI-COR Biosciences). Typically, we performed WB in where a single blot is simultaneously probed with antibodies against 2 proteins of interest (distinct antibody species), followed by visualisation with the corresponding secondary antibodies conjugated to distinct spectral dyes. All steps were carried out on ice to prevent surface protein internalisation. […] The protein concentration was determined by BCA. […]

[2] = biological target: T1, hRetromer (Homo sapiens, UniProt O75436+Q96QK1+Q9UBQ0); assay: Isothermal titration calorimetry (ITC) of binding to Retromer; conditions: ITC, 25 °C, 530 µM TBC1D13 titrated into 14 µM Retromer, mean of triplicate titrations
T1 construct: GST (pGEX4T-2, thrombin site plus linker) (N, cleaved yes); made in house; host or cells: E. coli BL21 (DE3)
Experimental: All the bacteria constructs were expressed in BL21 (DE3) cells using the autoinduction method. In brief, cultures grown in complex medium were incubated at 37 °C for 4 h, followed by overnight growth at 20 °C before harvesting for purification. […] In all cases, the soluble fractions clarified by centrifugation were loaded onto pre-equilibrated glutathione sepharose (GE healthcare) for initial purification. For Retromer, an additional Talon® resin purification step was performed to ensure the correct stoichiometry. GST-tag removal was carried out co-column overnight by adding thrombin for Human Retromer and PreScission protease for TBC1D13. The GST-tag removed fraction was further purified by size-exclusion chromatography (SEC) using a Superdex 200 (16/600) column (GE Healthcare) equilibrated with buffer containing 50 mM Tris-HCl pH 7.5, 200 mM NaCl, 2 mM β-ME.
The effect of cyclic peptide was assessed by pre-mixing 140 µM RT-D1 into 14 µM Retromer before titrating with 1 mM of native DENND4C1189-1206 peptide. For the binding experiment between Retromer and TBC1D13, 530 µM of TBC1D13 was titrated into 14 µM Retromer. The effect of the cyclic peptide was tested using the same concentration of RT-D1 as described above. All ITC experiments consisted of an initial 0.4 μl (not used in data processing), followed by 12 serial injections of 3.22 μl each with 180 sec intervals. […]

| -TΔS [2] | Kd ([2]; single-site binding model, read-out: Kd) | Molecule | CTR1 Surface (LAT1 normalized) [1] |
| --- | --- | --- | --- |
| – | – | GFP-RAB10T23N (protein, UniProt P61026 1-200, looked up, variant T23N, GFP fusion) Ras-related protein Rab-10: MAKKTYDLLFKLLLIGDSGVGKNCVLFRFSDDAFNTTFISTIGIDFKIKTVELQGKKIKLQIWDTAGQERFHTITTSYYRGAMGIMLVYDITNGKSFENISKWLRNIDEHANEDVERMLLGNKCDMDDKRVVPKGKGEQIAREHGIRFFETSAKANINIEKAFLTLAEDILRKTPVKEPNSENVDISSGGGVTGWKSKCC | 77.05 |
| 1.0 ± 1.4 kcal/mol | 6.3 ± 1.2 µM | hTBC1D13TBC: recombinant full-length human TBC1D13, RAB35 GAP, expressed in bacteria (protein, left off: GST, end not stated, cleaved, recombinant full-length human TBC1D13, RAB35 GAP, expressed in bacteria) MSSLHKSRIADFQDVLKEPSIALEKLRELSFSGIPCEGGLRCLCWKILLNYLPLERASWTSILAKQRELYAQFLREMIIQPGIAKANMGVSREDVTFEDHPLNPNPDSRWNTYFKDNEVLLQIDKDVRRLCPDISFFQRATDYPCLLILDPQNEFETLRKRVEQTTLKSQTVARNRSGVTNMSSPHKNSVPSSLNEYEVLPNGCEAHWEVVERILFIYAKLNPGIAYVQGMNEIVGPLYYTFATDPNSEWKEHAEADTFFCFTNLMAEIRDNFIKSLDDSQCGITYKMEKVYSTLKDKDVELYLKLQEQNIKPQFFAFRWLTLLLSQEFLLPDVIRIWDSLFADDNRFDFLLLVCCAMLMLIREQLLEGDFTVNMRLLQDYPITDVCQILQKAKELQDSK | – |

Reference: paper PMC12311110 (Nature Communications, 2025)
